Measured values from patent publication US20050202008A1 (Genentech, published 2005).

B1: PRO364-IgG (soluble immunoglobulin fusion protein of the PRO364 extracellular domain) (Fc fusion)
chain: QRPTGGPGCGPGRLLLGTGTDARCCRVHTTRCCRDYPGEECCSEWDCMCVQPEFHCGDPCCTTCRHHPCPPGQGVQSQGKFSFGFQCIDCASGTFSGGHEGHCKPWTDCTQFGFLTVFPGNKTHNAVCVPGSPPAE
notes: Expressed in insect cells with Baculovirus; also called PRO364 immunoadhesin; PRO364 ECD C-terminus IgG-Fc tagged form; not shown: IgG-Fc at the C-terminus
B2: soluble PRO175 polypeptide (PRO175 ECD, E. coli, Met-Gly-His10-enterokinase-site tagged) (ligand)
chain: MGHHHHHHHHHHSSGHIDDDDKHMETAKEPCMAKFGPLPSKWQMASSEPPCVNKVSDWKLEILQNGLYLIYGQVAPNANYNDVAPFEVRLYKNKDMIQTLTNKSKIQNVGGTYELHVGDTIDLIFNSEHQVLKNNTYWGIILLANPQFIS
modifications: labeled with 125I (residues not stated)
notes: also called soluble PRO175 ECD molecule; radioiodinated soluble PRO175 polypeptide
B3: CD95 immunoadhesin (Fc fusion, UniProt P25445 26-173, looked up)
chain: QVTDINSKGLELRKTVTTVETQNLEGLHHDGQFCHKPCPPGERKARDCTVNGDEPDCVPCQEGKEYTDKAHFSSKCRRCRLCDEGHGLEVEINCTRTQNTKCRCKPNFFCNSTVCEHCDPCTKCEHGIIKECTLTSNTKCKEEGSRSN
notes: extracellular domain; also called CD95-IgG; Fas-IgG; not shown: hinge and Fc portion of human IgG; made as described for TNFR1 in Ashkenazi et al. 1991 (IgG1 from)
B4: full-length PRO175 polypeptide on cells (ligand)
chain: MCLSHLENMPLSHSRTQGAQRSSWKLWLFCSIVMLLFLCSFSWLIFIFLQLETAKEPCMAKFGPLPSKWQMASSEPPCVNKVSDWKLEILQNGLYLIYGQVAPNANYNDVAPFEVRLYKNKDMIQTLTNKSKIQNVGGTYELHVGDTIDLIFNSEHQVLKNNTYWGIILLANPQFIS
notes: Human 293 cells were transiently transfected with full-length PRO175, co-transfected with CD4 for gating; also called PRO175 on transfected 293 cells; PRO175 on HUVEC

What was measured:
[1] = molecular target: B4; assay: FACS on 293 cells transiently transfected with full-length PRO175
Protocol: In another assay, human 293 cells were transiently transfected with full-length PRO175 and the ability of receptor immunoadhesin constructs for PRO364, TNFR1, HVEM, and DcR1 to bind to those transfected cells was determined by FACS analysis. The 293 cells were maintained in high glucose DMEM media supplemented with 10% fetal bovine serum (FBS), 2 mM glutamine, 100 microgram/ml penicillin, and 100 microgram/ml streptomycin. The transfected cells ([…]) were incubated for 60 minutes at 4° C. in 200 microliters 2% FBS/PBS with 1 microgram of the respective receptor or ligand immunoadhesin. The cells were then washed with 2% FBS/PBS, stained with R-phycoerythrin-conjugated goat anti-human antibody (Jackson Immunoresearch, West Grove, Pa.). Next, the cells were analyzed by FACS. To test the binding of the respective immunoadhesins to the transiently transfected cells, an expression vector (pRK5-CD4; Smith et al., Science, 328:1704-1707 (1987)) for CD4 was co-transfected with PRO175 expression vector (see above). FITC-conjugated anti-CD4 (Pharmingen, San Diego, Calif.) was then used to identify and gate the transfected cell population in the FACS analysis.

DR5 immunoadhesin = molecular target: T1, DR5 immunoadhesin (human, UniProt O14763 56-210, limits assumed); assay: co-precipitation with protein A-sepharose, SDS-PAGE, autoradiography
T1 construct: extracellular domain; also called DR5-IgG; Apo-2; not shown: hinge and Fc portion of human IgG; made as described for TNFR1 in Ashkenazi et al. 1991 (IgG1 from)
Protocol: (§1) The soluble PRO175 ECD molecule was abeled with ¹²⁵I, for testing its ability to interact with the PRO364 immunoadhesin. For comparison, immunoadhesin constructs were also made of the following TNF receptor family members: CD95, DR4, DR5, TNFR1, TNFR2, and Apo-3. CD95, DR4, DR5, TNFR1, TNFR2, and Apo-3 immunoadhesins were prepared by fusing each receptor's ECD to the hinge and Fc portion of human IgG, as described previously for TNFR1 [Ashkenazi et al., Proc. Natl. Acad. Sci., 88:10535-10539 (1.991)]. The respective TNF receptor family members are described (and relevant references cited) in the Background of the Invention section.
(§2) For the co-precipitation assay, each immunoadhesin (5 microgram) was incubated with ¹²⁵I-labeled soluble PRO175 polypeptide (I microgram) for 1 hour at 24° C., followed by protein A-sepharose for 30 minutes on ice. The reaction mixtures were spun down and washed several times in PBS, boiled in SDS-PAGE buffer containing 20 mM dithiothreitol and then resolved by SDS-PAGE and autoradiography.

TNFR1 immunoadhesin [2] = molecular target: T2, TNFR1 immunoadhesin (human, UniProt P19438 30-211, limits assumed); assay: as above
T2 construct: extracellular domain; also called TNFR1-IgG; TNFR 1-IgG; not shown: hinge and Fc portion of human IgG
T2 sequence (looked up): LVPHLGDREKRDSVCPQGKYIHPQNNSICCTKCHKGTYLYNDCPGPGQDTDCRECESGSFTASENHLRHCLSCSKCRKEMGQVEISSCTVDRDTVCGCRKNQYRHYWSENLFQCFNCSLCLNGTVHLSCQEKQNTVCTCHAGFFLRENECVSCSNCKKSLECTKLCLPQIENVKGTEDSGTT
Protocol: as §1, §2

TNFR2 immunoadhesin = molecular target: T3, TNFR2 immunoadhesin (human, UniProt P20333 23-257, limits assumed); assay: as above
T3 construct: extracellular domain; also called TNFR2-IgG; not shown: hinge and Fc portion of human IgG; made as described for TNFR1 in Ashkenazi et al. 1991 (IgG1 from)
T3 sequence (looked up): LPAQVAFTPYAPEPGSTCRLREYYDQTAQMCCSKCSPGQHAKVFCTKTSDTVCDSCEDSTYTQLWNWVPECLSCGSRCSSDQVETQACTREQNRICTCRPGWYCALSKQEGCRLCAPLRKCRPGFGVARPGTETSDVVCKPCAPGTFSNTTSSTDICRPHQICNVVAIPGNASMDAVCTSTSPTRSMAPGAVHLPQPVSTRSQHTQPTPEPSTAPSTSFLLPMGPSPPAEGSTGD
Protocol: as §1, §2

CD95 immunoadhesin = molecular target: B3; assay: as above
Protocol: as §1, §2

Apo-3 immunoadhesin = molecular target: T4, Apo-3 immunoadhesin (human, UniProt Q93038 25-199); assay: as above
T4 construct: extracellular domain; also called Apo-3-IgG; DR3; not shown: hinge and Fc portion of human IgG; made as described for TNFR1 in Ashkenazi et al. 1991 (IgG1 from)
T4 sequence (looked up): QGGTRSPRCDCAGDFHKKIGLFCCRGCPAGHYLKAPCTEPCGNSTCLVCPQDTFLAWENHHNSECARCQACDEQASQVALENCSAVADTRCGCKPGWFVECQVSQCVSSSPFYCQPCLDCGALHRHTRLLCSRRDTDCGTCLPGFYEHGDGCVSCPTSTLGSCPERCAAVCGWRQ
Protocol: as §1, §2

DR4 immunoadhesin = molecular target: T5, DR4 immunoadhesin (human, UniProt O00220 24-239, limits assumed); assay: as above
T5 construct: extracellular domain; also called DR4-IgG; not shown: hinge and Fc portion of human IgG; made as described for TNFR1 in Ashkenazi et al. 1991 (IgG1 from)
T5 sequence (looked up): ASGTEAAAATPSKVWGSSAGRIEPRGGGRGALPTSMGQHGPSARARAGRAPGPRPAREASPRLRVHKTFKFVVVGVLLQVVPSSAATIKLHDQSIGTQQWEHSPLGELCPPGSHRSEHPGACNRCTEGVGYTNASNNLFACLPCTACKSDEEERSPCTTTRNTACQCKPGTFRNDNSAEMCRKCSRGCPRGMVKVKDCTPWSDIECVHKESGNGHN
Protocol: as §1, §2

[3] = molecular target: B4; assay: FACS on HUVEC (endogenous PRO175)
Protocol: (§3) The PRO175 polypeptide was identified in a human umbilical vein endothelial cell (HUVEC) library, and the PRO175 polypeptide transcripts are readily detectable in HUVEC by RT-PCR (data not shown). […] HUVEC were purchased from Cell Systems (Kirkland, Wash.) and grown in a 50:50 mix of Ham=s F 12 and Low Glucose DMEM media containing 10% fetal bovine serum, 2 mM L-glutamine, 10 mM Hepes, and 10 ng/ml basic FGF. Cells were FACS sorted with PBS, PRO364-IgG, TNFR1-IgG or Fas-IgG as a primary antibody and goat anti-human F(ab=)₂ conjugated to phycoerythrin (CalTag, Burlingame, Calif.).

TNFR1 immunoadhesin [4] = molecular target: T2, TNFR1 immunoadhesin; assay: FACS on HUVEC (endogenous PRO175)
Protocol: as §3

Binder: B1
- binding result [1]: binds

Binder: B2
- binding result (DR5 immunoadhesin): no binding
- binding result (TNFR1 immunoadhesin [2]): no binding
- binding result (TNFR2 immunoadhesin): no binding
- binding result (CD95 immunoadhesin): no binding
- binding result (Apo-3 immunoadhesin): no binding
- binding result (DR4 immunoadhesin): no binding

Binder: B3
- binding result [3]: no binding

Binder: B4
- binding result (TNFR1 immunoadhesin [4]): no binding
